Experimental data taken from doi:10.64898/2025.12.17.695035.
pKd: −log10 of the molar value.

Target: E. coli RNAP as used in the ITC experiments (E. coli) (UniProt P0A7Z4)
Assay: ITC

Escherichia phage protein EP1 (from UniProt A0A0N9RSC1 1-107) (natural protein)
pKd: 7.47
